# Results reported in IntAct's records for PubMed 18532879.
# B1: Nuclear polyadenylated RNA-binding protein NAB2 (Saccharomyces cerevisiae), P32505 (parent)
# chain: MSQEQYTENLKVIVAEKLAGIPNFNEDIKYVAEYIVLLIVNGGTVESVVDELASLFDSVSRDTLANVVQTAFFALEALQQGESAENIVSKIRMMNAQSLGQSDIAQQQQQQQQQQQPDIAQQQPQQQPQQQPQQQPQQQPQQQPQQQPQQQPQQQPQLQPLQPQLGTQNAMQTDAPATPSPISAFSGVVNAAAPPQFAPVDNSQRFTQRGGGAVGKNRRGGRGGNRGGRNNNSTRFNPLAKALGMAGESNMNFTPTKKEGRCRLFPHCPLGRSCPHAHPTKVCNEYPNCPKPPGTCEFLHPNEDEELMKEMERTREEFQKRKADLLAAKRKPVQTGIVLCKFGALCSNPSCPFGHPTPANEDAKVIDLMWCDKNLTCDNPECRKAHSSLSKIKEVKPISQKKAAPPPVEKSLEQCKFGTHCTNKRCKYRHARSHIMCREGANCTRIDCLFGHPINEDCRFGVNCKNIYCLFRHPPGRVLPEKKGAAPNSNVPTNERPFALPENAIIENAPPQTSFTHQEQDTEMN
# partner: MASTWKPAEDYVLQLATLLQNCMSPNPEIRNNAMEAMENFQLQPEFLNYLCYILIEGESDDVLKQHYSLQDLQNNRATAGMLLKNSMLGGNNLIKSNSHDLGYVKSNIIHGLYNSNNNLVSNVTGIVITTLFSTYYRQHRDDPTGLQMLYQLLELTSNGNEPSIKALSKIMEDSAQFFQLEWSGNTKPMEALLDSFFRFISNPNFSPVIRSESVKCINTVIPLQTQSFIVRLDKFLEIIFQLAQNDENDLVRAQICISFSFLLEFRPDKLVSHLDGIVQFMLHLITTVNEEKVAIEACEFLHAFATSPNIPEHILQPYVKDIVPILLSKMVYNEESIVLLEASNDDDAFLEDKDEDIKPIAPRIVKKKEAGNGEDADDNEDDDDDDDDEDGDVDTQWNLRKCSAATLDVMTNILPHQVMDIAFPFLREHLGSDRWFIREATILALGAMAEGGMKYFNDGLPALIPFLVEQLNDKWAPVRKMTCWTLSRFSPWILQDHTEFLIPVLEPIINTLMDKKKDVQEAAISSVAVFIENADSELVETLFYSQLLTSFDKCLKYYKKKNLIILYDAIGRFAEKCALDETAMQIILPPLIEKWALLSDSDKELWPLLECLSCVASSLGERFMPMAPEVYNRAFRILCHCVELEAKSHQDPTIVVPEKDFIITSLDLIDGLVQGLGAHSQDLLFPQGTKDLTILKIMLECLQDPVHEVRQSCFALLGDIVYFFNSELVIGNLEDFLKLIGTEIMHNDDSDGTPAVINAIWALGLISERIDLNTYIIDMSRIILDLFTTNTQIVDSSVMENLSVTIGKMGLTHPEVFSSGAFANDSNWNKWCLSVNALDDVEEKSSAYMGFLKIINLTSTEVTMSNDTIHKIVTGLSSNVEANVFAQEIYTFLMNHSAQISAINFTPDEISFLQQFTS
# B2: Nuclear polyadenylated RNA-binding protein 4 (Saccharomyces cerevisiae), Q99383 (parent)
# chain: MSSDEEDFNDIYGDDKPTTTEEVKKEEEQNKAGSGTSQLDQLAALQALSSSLNKLNNPNSNNSSSNNSNQDTSSSKQDGTANDKEGSNEDTKNEKKQESATSANANANASSAGPSGLPWEQLQQTMSQFQQPSSQSPPQQQVTQTKEERSKADLSKESCKMFIGGLNWDTTEDNLREYFGKYGTVTDLKIMKDPATGRSRGFGFLSFEKPSSVDEVVKTQHILDGKVIDPKRAIPRDEQDKTGKIFVGGIGPDVRPKEFEEFFSQWGTIIDAQLMLDKDTGQSRGFGFVTYDSADAVDRVCQNKFIDFKDRKIEIKRAEPRHMQQKSSNNGGNNGGNNMNRRGGNFGNQGDFNQMYQNPMMGGYNPMMNPQAMTDYYQKMQEYYQQMQKQTGMDYTQMYQQQMQQMAMMMPGFAMPPNAMTLNQPQQDSNATQGSPAPSDSDNNKSNDVQTIGNTSNTDSGSPPLNLPNGPKGPSQYNDDHNSGYGYNRDRGDRDRNDRDRDYNHRSGGNHRRNGRGGRGGYNRRNNGYHPYNR
# partner: B1 partner
# Variants of: B1
# Settings: with imb2_yeast KAP104, P38217
row,effect of a mutation on the interaction,Variant
1,disrupting interaction,MSQEQYTENLKVIVAEKLAGIPNFNEDIKYVAEYIVLLIVNGGTVESVVDELASLFDSVSRDTLANVVQTAFFALEALQQGESAENIVSKIRMMNAQSLGQSDIAQQQQQQQQQQQPDIAQQQPQQQPQQQPQQQPQQQPQQQPQQQPQQQPQQQPQLQPLQPQLGTQNAMQTDAPATPSPISAFSGVVNAAAPPQFAPVDNSQRFTQRGGGAVGKNRRGGRGGNRGGRNNNSTRANPLAKALGMAGESNMNFTPTKKEGRCRLFPHCPLGRSCPHAHPTKVCNEYPNCPKPPGTCEFLHPNEDEELMKEMERTREEFQKRKADLLAAKRKPVQTGIVLCKFGALCSNPSCPFGHPTPANEDAKVIDLMWCDKNLTCDNPECRKAHSSLSKIKEVKPISQKKAAPPPVEKSLEQCKFGTHCTNKRCKYRHARSHIMCREGANCTRIDCLFGHPINEDCRFGVNCKNIYCLFRHPPGRVLPEKKGAAPNSNVPTNERPFALPENAIIENAPPQTSFTHQEQDTEMN [F236A]

# Variants of: B2
# Settings: with imb2_yeast KAP104, P38217
row,Variant,effect of a mutation on the interaction
1,MSSDEEDFNDIYGDDKPTTTEEVKKEEEQNKAGSGTSQLDQLAALQALSSSLNKLNNPNSNNSSSNNSNQDTSSSKQDGTANDKEGSNEDTKNEKKQESATSANANANASSAGPSGLPWEQLQQTMSQFQQPSSQSPPQQQVTQTKEERSKADLSKESCKMFIGGLNWDTTEDNLREYFGKYGTVTDLKIMKDPATGRSRGFGFLSFEKPSSVDEVVKTQHILDGKVIDPKRAIPRDEQDKTGKIFVGGIGPDVRPKEFEEFFSQWGTIIDAQLMLDKDTGQSRGFGFVTYDSADAVDRVCQNKFIDFKDRKIEIKRAEPRHMQQKSSNNGGNNGGNNMNRRGGNFGNQGDFNQMYQNPMMGGYNPMMNPQAMTDYYQKMQEYYQQMQKQTGMDYTQMYQQQMQQMAMMMPGFAMPPNAMTLNQPQQDSNATQGSPAPSDSDNNKSNDVQTIGNTSNTDSGSPPLNLPNGPKGPSQYNDDHNSGYGYNRDRGDRDRNDRDRDYNHRSGGNHRRNGRGGRGGYNRRNNGAHPYNR [Y529A],disrupting interaction
2,MSSDEEDFNDIYGDDKPTTTEEVKKEEEQNKAGSGTSQLDQLAALQALSSSLNKLNNPNSNNSSSNNSNQDTSSSKQDGTANDKEGSNEDTKNEKKQESATSANANANASSAGPSGLPWEQLQQTMSQFQQPSSQSPPQQQVTQTKEERSKADLSKESCKMFIGGLNWDTTEDNLREYFGKYGTVTDLKIMKDPATGRSRGFGFLSFEKPSSVDEVVKTQHILDGKVIDPKRAIPRDEQDKTGKIFVGGIGPDVRPKEFEEFFSQWGTIIDAQLMLDKDTGQSRGFGFVTYDSADAVDRVCQNKFIDFKDRKIEIKRAEPRHMQQKSSNNGGNNGGNNMNRRGGNFGNQGDFNQMYQNPMMGGYNPMMNPQAMTDYYQKMQEYYQQMQKQTGMDYTQMYQQQMQQMAMMMPGFAMPPNAMTLNQPQQDSNATQGSPAPSDSDNNKSNDVQTIGNTSNTDSGSPPLNLPNGPKGPSQYNDDHNSGYGYNRDRGDRDRNDRDRDYNHRSGGNHAANGAGGAGGYNRRNNGYHPYNR [R512A;R513A;R516A;R519A],disrupting interaction strength
3,MSSDEEDFNDIYGDDKPTTTEEVKKEEEQNKAGSGTSQLDQLAALQALSSSLNKLNNPNSNNSSSNNSNQDTSSSKQDGTANDKEGSNEDTKNEKKQESATSANANANASSAGPSGLPWEQLQQTMSQFQQPSSQSPPQQQVTQTKEERSKADLSKESCKMFIGGLNWDTTEDNLREYFGKYGTVTDLKIMKDPATGRSRGFGFLSFEKPSSVDEVVKTQHILDGKVIDPKRAIPRDEQDKTGKIFVGGIGPDVRPKEFEEFFSQWGTIIDAQLMLDKDTGQSRGFGFVTYDSADAVDRVCQNKFIDFKDRKIEIKRAEPRHMQQKSSNNGGNNGGNNMNRRGGNFGNQGDFNQMYQNPMMGGYNPMMNPQAMTDYYQKMQEYYQQMQKQTGMDYTQMYQQQMQQMAMMMPGFAMPPNAMTLNQPQQDSNATQGSPAPSDSDNNKSNDVQTIGNTSNTDSGSPPLNLPNGPKGPSQYNDDHNSGYGYNRDRGDRDRNDRDRDYNHRSGGNHRRNGRGGRGGYNRRNNGYHPFNR [Y532F],disrupting interaction strength

# Second part, the variant after the results:
row,effect of a mutation on the interaction,Variant
1,disrupting interaction strength,MSSDEEDFNDIYGDDKPTTTEEVKKEEEQNKAGSGTSQLDQLAALQALSSSLNKLNNPNSNNSSSNNSNQDTSSSKQDGTANDKEGSNEDTKNEKKQESATSANANANASSAGPSGLPWEQLQQTMSQFQQPSSQSPPQQQVTQTKEERSKADLSKESCKMFIGGLNWDTTEDNLREYFGKYGTVTDLKIMKDPATGRSRGFGFLSFEKPSSVDEVVKTQHILDGKVIDPKRAIPRDEQDKTGKIFVGGIGPDVRPKEFEEFFSQWGTIIDAQLMLDKDTGQSRGFGFVTYDSADAVDRVCQNKFIDFKDRKIEIKRAEPRHMQQKSSNNGGNNGGNNMNRRGGNFGNQGDFNQMYQNPMMGGYNPMMNPQAMTDYYQKMQEYYQQMQKQTGMDYTQMYQQQMQQMAMMMPGFAMPPNAMTLNQPQQDSNATQGSPAPSDSDNNKSNDVQTIGNTSNTDSGSPPLNLPNGPKGPSQYNDDHNSGYGYNRDRGDRDRNDRDRDYNHRSGGNHRRNGRGGRGGYNRRNNGYHPHNR [Y532H]
2,disrupting interaction strength,MSSDEEDFNDIYGDDKPTTTEEVKKEEEQNKAGSGTSQLDQLAALQALSSSLNKLNNPNSNNSSSNNSNQDTSSSKQDGTANDKEGSNEDTKNEKKQESATSANANANASSAGPSGLPWEQLQQTMSQFQQPSSQSPPQQQVTQTKEERSKADLSKESCKMFIGGLNWDTTEDNLREYFGKYGTVTDLKIMKDPATGRSRGFGFLSFEKPSSVDEVVKTQHILDGKVIDPKRAIPRDEQDKTGKIFVGGIGPDVRPKEFEEFFSQWGTIIDAQLMLDKDTGQSRGFGFVTYDSADAVDRVCQNKFIDFKDRKIEIKRAEPRHMQQKSSNNGGNNGGNNMNRRGGNFGNQGDFNQMYQNPMMGGYNPMMNPQAMTDYYQKMQEYYQQMQKQTGMDYTQMYQQQMQQMAMMMPGFAMPPNAMTLNQPQQDSNATQGSPAPSDSDNNKSNDVQTIGNTSNTDSGSPPLNLPNGPKGPSQYNDDHNSGYGYNRDRGDRDRNDRDRDYNHRSGGNHRRNGRGGRGGYNRRNNGYHPMNR [Y532M]
